In patent US20150299268A1:

Legend:
[1] = target: gp120-b12-ScFV; assay: ELISA
[2] = target: gp120-JR4-ScFV; assay: ELISA
[3] = target: gp120-JR48.1-ScFV; assay: ELISA
[4] = target: BaL-gp120 (HIV-1 BaL); assay: ELISA
[5] = target: FLSC R/T (HIV-1) (UniProt P01730); assay: ELISA
[6] = target: gp120-VRC01-ScFV; assay: ELISA
[7] = target: BaL-gp120-D78A (HIV-1 BaL); assay: capture ELISA
[8] = target: BaL-gp120-E47A (HIV-1 BaL); assay: capture ELISA
[9] = target: BaL-gp120-V75A (HIV-1 BaL); assay: capture ELISA
[10] = target: BaL-gp120-D57A (HIV-1 BaL); assay: capture ELISA
[11] = target: BaL-gp120-T162A (HIV-1 BaL); assay: capture ELISA
[12] = target: BaL-gp120-V44A (HIV-1 BaL); assay: capture ELISA
[13] = target: BaL-gp120-F53A (HIV-1 BaL); assay: capture ELISA
[14] = target: core-V3-D7 (HIV-1); assay: capture ELISA
[15] = target: FLSC (HIV-1) (UniProt P01730); assay: capture ELISA
[16] = target: BaL-gp120-D57AD78A (HIV-1 BaL); assay: capture ELISA
[17] = target: BaL-gp120-Y39A (HIV-1 BaL); assay: capture ELISA
[18] = target: BaL-gp120-K46A (HIV-1 BaL); assay: capture ELISA
[19] = target: BaL-gp120-S200A (HIV-1 BaL); assay: capture ELISA
[20] = target: BaL-gp120-V68A (HIV-1 BaL); assay: capture ELISA
[21] = target: BaL-gp120-E492A (HIV-1 BaL); assay: capture ELISA
[22] = target: BaL-gp120-W35A (HIV-1 BaL); assay: capture ELISA
[23] = target: BaL-gp120-W69A (HIV-1 BaL); assay: capture ELISA
[24] = target: BaL-gp120-Y40A (HIV-1 BaL); assay: capture ELISA
[25] = target: BaL-gp120-I420R (HIV-1 BaL); assay: capture ELISA
[26] = target: BaL-gp120-T455A (HIV-1 BaL); assay: capture ELISA
[27] = target: BaL-gp120-dV2 (HIV-1 BaL); assay: capture ELISA
[28] = target: core-D7 (HIV-1); assay: capture ELISA
[29] = target: BaL-gp120-D368R (HIV-1 BaL); assay: capture ELISA
[30] = target: BaL-gp120-E31A (HIV-1 BaL); assay: capture ELISA
[31] = target: BaL-gp120-S158A (HIV-1 BaL); assay: capture ELISA
[32] = target: BaL-gp120-K487AK490A (HIV-1 BaL); assay: capture ELISA
[33] = target: BaL-gp120-P76A (HIV-1 BaL); assay: capture ELISA
[34] = target: BaL-gp120-E32A (HIV-1 BaL); assay: capture ELISA
[35] = target: BaL-gp120-mV3 (HIV-1 BaL); assay: capture ELISA
[36] = target: BaL-gp120-T303A (HIV-1 BaL); assay: capture ELISA
[37] = target: BaL-gp120-E106AD107A (HIV-1 BaL); assay: capture ELISA
[38] = target: BaL-gp120-I423A (HIV-1 BaL); assay: capture ELISA
[39] = target: BaL-gp120-K33A (HIV-1 BaL); assay: capture ELISA
[40] = target: BaL-gp120-G495A (HIV-1 BaL); assay: capture ELISA
[41] = target: BaL-gp120-E47AE91A (HIV-1 BaL); assay: capture ELISA
[42] = target: BaL-gp120-S334A (HIV-1 BaL); assay: capture ELISA
[43] = target: BaL-gp120-dV3 (HIV-1 BaL); assay: capture ELISA
[44] = target: BaL-gp120-T499A (HIV-1 BaL); assay: capture ELISA
[45] = target: BaL-gp120-I491A (HIV-1 BaL); assay: capture ELISA
[46] = target: BaL-gp120-dV1 (HIV-1 BaL); assay: capture ELISA
[47] = target: BaL-gp120-H105A (HIV-1 BaL); assay: capture ELISA
[48] = target: BaL-gp120-P493A (HIV-1 BaL); assay: capture ELISA
[49] = target: BaL-gp120-Y61A (HIV-1 BaL); assay: capture ELISA
[50] = target: BaL-gp120-R476AR480A (HIV-1 BaL); assay: capture ELISA
[51] = target: BaL-gp120-L494A (HIV-1 BaL); assay: capture ELISA
[52] = target: BaL-gp120-R58AK59A (HIV-1 BaL); assay: capture ELISA
[53] = target: core-V1V2-D7 (HIV-1); assay: capture ELISA
[54] = target: BaL-gp120-D57AD62A (HIV-1 BaL); assay: capture ELISA
[55] = target: BaL-gp120-R476A (HIV-1 BaL); assay: capture ELISA
[56] = target: BaL-gp120-V496A (HIV-1 BaL); assay: capture ELISA
[57] = target: BaL-gp120-D62A (HIV-1 BaL); assay: capture ELISA
[58] = target: BaL-gp120-K500A (HIV-1 BaL); assay: capture ELISA
[59] = target: BaL-gp120 (HIV-1 BaL); assay: capture ELISA
[60] = target: BaL-gp120-W45A (HIV-1 BaL); assay: capture ELISA
[61] = target: BaL-gp120-P498A (HIV-1 BaL); assay: capture ELISA

Substance: PG04 (antibody)
- Fold of Ab needed for ELISA binding OD equal to half max on gp120 [1]: > 100 fold
- Fold of Ab needed for ELISA binding OD equal to half max on gp120 [2]: 0.26 fold
- Fold of Ab needed for ELISA binding OD equal to half max on gp120 [3]: 0.36 fold
- Fold of Ab needed for ELISA binding OD equal to half max on gp120 [4]: 1 fold

Substance: A32 (antibody)
- Fold of Ab needed for ELISA binding OD equal to half max on gp120 [1]: 0.06 fold
- Fold of Ab needed for ELISA binding OD equal to half max on gp120 [5]: 0.04 fold
- Fold of Ab needed for ELISA binding OD equal to half max on gp120 [2]: > 100 fold
- Fold of Ab needed for ELISA binding OD equal to half max on gp120 [3]: 0.1 fold
- Fold of Ab needed for ELISA binding OD equal to half max on gp120 [6]: 0.2 fold
- Fold of Ab needed for ELISA binding OD equal to half max on gp120 [4]: 1 fold

Substance: PG9 (antibody)
- Fold of Ab needed for ELISA binding OD equal to half max on gp120 [1]: 0.06 fold
- Fold of Ab needed for ELISA binding OD equal to half max on gp120 [5]: 8.02 fold
- Fold of Ab needed for ELISA binding OD equal to half max on gp120 [2]: 0.02 fold
- Fold of Ab needed for ELISA binding OD equal to half max on gp120 [3]: 0.07 fold
- Fold of Ab needed for ELISA binding OD equal to half max on gp120 [6]: 0.09 fold
- Fold of Ab needed for ELISA binding OD equal to half max on gp120 [4]: 1 fold

Substance: 2G12 (antibody)
- % Binding [7]: 87%
- % Binding [8]: 96%
- % Binding [9]: 89%
- % Binding [10]: 91%
- % Binding [11]: 87%
- % Binding [12]: 93%
- % Binding [13]: 99%
- % Binding [14]: 86%
- % Binding [15]: 104%
- % Binding [16]: 95%
- % Binding [17]: 89%
- % Binding [18]: 92%
- % Binding [19]: 92%
- % Binding [20]: 82%
- % Binding [21]: 93%
- % Binding [22]: 99%
- % Binding [23]: 87%
- % Binding [24]: 93%
- % Binding [25]: 93%
- % Binding [26]: 87%
- % Binding [27]: 82%
- % Binding [28]: 100%
- % Binding [29]: 82%
- % Binding [30]: 80%
- % Binding [31]: 80%
- % Binding [32]: 83%
- % Binding [33]: 90%
- % Binding [34]: 93%
- % Binding [35]: 100%
- % Binding [36]: 88%
- % Binding [37]: 79%
- % Binding [38]: 94%
- % Binding [39]: 83%
- % Binding [40]: 93%
- % Binding [41]: 86%
- % Binding [42]: 16%
- % Binding [43]: 100%
- % Binding [44]: 100%
- % Binding [45]: 92%
- % Binding [46]: 93%
- % Binding [47]: 89%
- % Binding [48]: 93%
- % Binding [49]: 81%
- % Binding [50]: 83%
- % Binding [51]: 79%
- % Binding [52]: 88%
- % Binding [53]: 100%
- % Binding [54]: 105%
- % Binding [55]: 98%
- % Binding [56]: 96%
- % Binding [57]: 86%
- % Binding [58]: 92%
- % Binding [59]: 100%
- % Binding [60]: 92%
- % Binding [61]: 93%
- Fold of Ab needed for ELISA binding OD equal to half max on gp120 [1]: 0.56 fold
- Fold of Ab needed for ELISA binding OD equal to half max on gp120 [5]: 0.91 fold
- Fold of Ab needed for ELISA binding OD equal to half max on gp120 [2]: 0.61 fold
- Fold of Ab needed for ELISA binding OD equal to half max on gp120 [3]: 0.58 fold
- Fold of Ab needed for ELISA binding OD equal to half max on gp120 [6]: 0.66 fold
- Fold of Ab needed for ELISA binding OD equal to half max on gp120 [4]: 1 fold

Substance: PGT128 (antibody)
- Fold of Ab needed for ELISA binding OD equal to half max on gp120 [1]: 0.09 fold
- Fold of Ab needed for ELISA binding OD equal to half max on gp120 [5]: 5.07 fold
- Fold of Ab needed for ELISA binding OD equal to half max on gp120 [2]: 0.13 fold
- Fold of Ab needed for ELISA binding OD equal to half max on gp120 [3]: 0.14 fold
- Fold of Ab needed for ELISA binding OD equal to half max on gp120 [6]: 0.23 fold
- Fold of Ab needed for ELISA binding OD equal to half max on gp120 [4]: 1 fold
